Measurements as given in US20120207760A1 (THERACLONE SCIENCES, published 2012).

B1: TCN-556 (5089_K12) (antibody, V domains shown)
VH: QVQLVQSGAEVKKPGASVKVSCKASGYTFIGYDMHWVRQAPGQGLEWMGWINAKRGGTNYAQKFQGRVTMTRDTSISTAYMELNSLRSDDTAVYYCARGVGSRTTIFGVLNPEFDYWGQGTLVTVSS
VL: QSALTQPPSASGSPGQSVTISCTGSSSDVGGYDYVSWYQQHPGKAPKLLIYEVTKRPSGVPDRFSGSKSGNTASLTVSGLQAEDEADYYCSSYAGNYNHVFGPGTKVTVL
B2: TCN-557 (5081_A04) (antibody, V domains shown)
VH: QVQLVQSGAEVKKPGASVKVSCKASGHTFTGYYIHWVRQAPGQGLEWMGWINPDSGATSSAQNFQGRVTMTGDTSSSTAYMELSRLSFDDTAVYYCARVLFTSPFDFWGEGTLVTVSS
VL: QAVVTQEPSLAVSPGGTVTLTCGSSTGAVTRGHYPYWFQQKPGQAPRALIYDSAGNRHSWTPARFSGSLLGGKAALTLSGAQPEDEAEYYCLLSYSGVWVFGGGTKLTVL
B3: TCN-549 (5092_P04) (antibody, V domains shown)
VH: QVQLVQSGAEVKKPGASVKVSCKASGYTFTGYYMHWVRQAPGQGLEWMGWINPNSGDTNYAQKFQGRVTMTRDTSITTAYMELSSLRSDDTAVYYCARDSPYSSSWSFFDYWGQGPLVTVSS
VL: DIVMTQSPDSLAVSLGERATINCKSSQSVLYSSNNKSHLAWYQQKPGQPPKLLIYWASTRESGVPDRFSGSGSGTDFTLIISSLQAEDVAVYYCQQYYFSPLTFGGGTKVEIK
B4: TCN-552 (5249_I23) (antibody, V domains shown)
VH: QVQVVQSGAEVKKPGSSVRVSCQASGGTFMNYAIIWVRRAPGQGLEWMGGIIPVFPTPNYAQMFQGRVTISTDESRSTSFLELTNLRYEDTAVYYCARRIYHGGNSGFDFWGQGTLVTVSS
VL: EIVLTQSPATLSLSPGERATLSCRASQSVGNYLAWYQQKPGQAPRLLIYDSSNRAPGIPARFSGSGSGTDFTLTISSLAPEDFAVYYCQQRSKWPPMYSFGHGTKLEIK
B5: TCN-550 (5096_F06) (antibody, V domains shown)
VH: QVQLQESGPGLVKPSETLSLTCTVSGASINSHYWSWIRQPPGKGLEWIGYVYYSGSTTYNPSLKSRVTLSVDTSKNQFSLNLSSVTAADTAFYYCARHPYDVLTGSGDWFDPWGQGTLVTVSS
VL: SYVLTQAPSVSVAPGQTARITCGGNAIGSKKVHWYQHKAGQAPVLVVYDDTDRPSGIPERFSGSNSWSTATLTINRVEAGDEADYYCQVWDFTIDHVVFGGGTKLTVL
B6: TCN-553 (5261_C18) (antibody, V domains shown)
VH: QVQVVQSGTEVKKPGSSVKVSCQTSGGRFMSYAITWVRQAPGQGLEWMGGIVPVFGTANYAQKFQGRVTITTDDSTRTAYMELSSLRSEDTAVYYCGFRYGSGYGFDSWGQGTLVTVSS
VL: EIVLTQSPGTLSLSPGERATLSCRASQSVSSSYLAWYQKKPGQAPRLLIYGASTRATGIPDRFTGSGSGTDFTLSISRLEPEDFAVYYCQHFGTSVFTFGGGTKVEIK
B7: TCN-551 (5243_D01) (antibody, V domains shown)
VH: EVQLVQSGSEVKKPGESLKISCKGSGYSFSNYWIGWVRHMPGKGLEWMGIIYPGDSDTRYSPSFQGQVTMSADKSSSTVYLQWSSLKASDTAIYYCARRGGHSFGYGSGGDTHSEFDSWGQGTLVTVSS
VL: QSVLTQSPSVSAAPGQKVTISCSGSDSNIGDYFVCWYQHLPGKPPQLLIYENNKRPSGIPDRFSGSKSGTSATLGITGIQTGDEADYYCATWDGSLSAWVFGGGTKLTVL
B8: TCN-555 (5246_L16) (antibody, V domains shown)
VH: QVQLVQSGAEVKRPGSSVKVSCTASGGIFRKNAISWVRQAPGQGLEWMGGIIAVFNTANYAQKFQNRVKITADESGNTAYMELSSLTSDDTAVYYCASHPKYFYGSGSYPDFWGQGTLVTVSS
VL: QSALTQPRSVSGSPGQSITISCTGGSSDIGASNSVSWYQQHPGKAPKLVIFDVTERPSGVPHRFSGSKSGNTASLTVSGLQPDDEADYFCCAYGGKYLVVFGGGTKVTVL
B9: TCN-560 (5084_P10) (antibody, V domains shown)
VH: EVQLVESGGGLVQPGGSLRLSCAASGFIFRNYWMSWVRQAPGKGLEWVANIKQDGREKYYVDSLRGRVNISRDNAENSLYLHMNSLRVEDTAVYFCARARMVVVTGDGFDVWGHGTMVTVSS
VL: DIQMTQSPSSLSASVGDRVTITCRASQNIKRYFNWYQQKPGKAPKLLIYAASNLENGVPSRFSGSGSGTDFTLTISSLQPEDFATYYCQQSFSKSWTFGQGTNVDIK

Molecular target: Hemagglutinin of influenza A/Solomon Islands/3/06 (H1N1), on inactivated whole virions (Influenza A virus A/Solomon …)
Assay: ELISA, B cell culture supernatant on inactivated whole virions

Row | Binder | OD450 [OD450]
1 | B1 | 2.7
2 | B2 | 2.32
3 | B3 | 0.09
4 | B4 | 3.57
5 | B5 | 0.06
6 | B6 | 3.6
7 | B7 | 3.35
8 | B8 | 2.89
9 | B9 | 3.63
